{"source": "paper PMC2229230", "key": {"endo-Gly0-gramicidin C [1]": {"molecular_target": "endo-Gly0-gramicidin C", "test": "single-channel recording in planar lipid bilayers"}, "endo-Gly0-gramicidin C [2]": {"molecular_target": "endo-Gly0-gramicidin C", "test": "single-channel recording in planar lipid bilayers", "remark": "listed apart in the source"}}, "note": "Read-outs that look alike come from different tables or passages of the source."}
{"substance": "endo-Gly0-gramicidin C (peptide)", "values": [{"measurement": "average channel duration tau (dimer lifetime, 1/k-1)", "setting": "endo-Gly0-gramicidin C [1]", "value": 862, "unit": "ms"}, {"measurement": "average channel duration tau (dimer lifetime, 1/k-1)", "setting": "endo-Gly0-gramicidin C [2]", "value": 410, "unit": "ms"}]}
